We go through nine molecules from patent US20220073922, “Aptamers and use thereof” (Aptitude Medical Systems, Inc., published 2022).

For series [1], the target named is T1, VEGF-165 (VEGFA isoform 165) (Homo sapiens).
T1 chain: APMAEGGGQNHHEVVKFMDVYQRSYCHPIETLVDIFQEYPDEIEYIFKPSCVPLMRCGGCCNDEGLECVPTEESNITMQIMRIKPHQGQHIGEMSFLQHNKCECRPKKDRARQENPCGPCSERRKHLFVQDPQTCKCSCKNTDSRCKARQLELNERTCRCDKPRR
The experiment in a line: flow; PBSMCT, 37 C; Table 7 gives a different value. Particulars: chain copies: 2 (inferred); label: biotin; stem-loop with bulges. On the procedure: (§1) Truncated and modified variants of the anti-VEGF aptamers of the present disclosure were prepared by LGC Biosearch Technologies (Novato, Calif.), and their binding affinity to corresponding targets were examined. Briefly, the equilibrium binding constants of the enriched libraries were measured using magnetic bead partitioning. Biotinylated anti-VEGF aptamers were conjugated to the 1 μm streptavidin-coated MyOne Streptavidin Cl magnetic beads (Thermo Fisher Scientific, 65002). Binding assays were performed by incubating fixed concentration of anti-VEGF aptamer (0.01 nM) and target protein at concentrations ranging from 10⁻¹² to 10⁻⁸ M in PBSMCT buffer (DPBS, pH 7.2 with 2.5 mM MgCl₂, 1 mM CaCl₂) and 0.01% TWEEN-20) at 37° C. for 90 minutes. Bound target protein was partitioned by magnetic separation and subsequently labeled via fluorescent anti-VEGF or anti-His-tag antibody. The fraction of anti-VEGF aptamer bound was quantified by flow cytometry (BD Accuri C6 Plus). Raw binding data were corrected for nonspecific background binding of target protein to empty magnetic beads. The fraction of bound anti-VEGF aptamer was plotted as a function of protein concentration and a non-linear curve-fitting algorithm (Langmuir one-site binding model) was used to extract equilibrium binding constants (KD values) from the data (FIG. 1).

Series [2] deals with T2, VEGF-121 (VEGFA isoform 121) (Homo sapiens, UniProt P15692 SEQ:1-121). Described as above. Particulars: chain copies: 2 (inferred); label: biotin; stem-loop with bulges. On the procedure:
as §1

The target in series [3] is T1, VEGF-165 (VEGFA isoform 165). The experiment in a line: competition; blocks VEGF-R1 and VEGF-R2 binding; PBSMCT, 37 C. Particulars: chain copies: 2 (inferred); label: biotin; stem-loop with bulges. On the procedure: (§2) Three different recombinant VEGF receptors (two VEGF-R1 and one VEGF-R2) were tested (R&D Systems, 3516-FL, 321-FL, and 357-KD). […] VEGF-bound receptors and anti-VEGF aptamers were partitioned by magnetic separation, and the VEGF-bound VEGF receptors were subsequently labeled via a fluorescent anti-human antibody. The fraction of VEGF-bound receptor was quantified by flow cytometry (BD Accuri C6 Plus). Raw binding data were corrected for nonspecific background binding and normalized to the fluorescence intensity from the sample with 1 nM VEGF receptor but without anti-VEGF aptamer competition. The fraction of bound receptor was plotted as a function of anti-VEGF aptamer concentration and a non-linear curve-fitting algorithm (dose-response inhibition) was used to extract IC₅₀ values from the data (FIG. 2).

Series [4] concerns the target T2, VEGF-121 (VEGFA isoform 121). The description is as above. Particulars: chain copies: 2 (inferred); label: biotin; stem-loop with bulges. On the procedure: as §2
In series [5] the target is T1, VEGF-165 (VEGFA isoform 165). The experiment in a line: flow; PBSMCT, 37 C; Table 6 gives a different value. Particulars: chain copies: 2 (inferred); label: biotin; stem-loop with bulges. On the procedure:
as §1

Series [6] concerns the target T2, VEGF-121 (VEGFA isoform 121). Described as above. Particulars: chain copies: 2 (inferred); label: biotin; stem-loop with bulges. How it is done: as §1
Series [7] has as its target T3, Angiopoietin-2 (Ang2) (Homo sapiens, UniProt O15123 O15123:19-496). The experiment in a line: flow. Particulars: tags: His tag, R&D Systems 623-AN.
Series [8] concerns the target T2, VEGF-121 (VEGFA isoform 121). The experiment in a line: flow. Particulars: chain copies: 2 (inferred).
The target in series [9] is T3, Angiopoietin-2 (Ang2). The experiment in a line: competition; blocks Ang2-Tie2 binding; PBSMCT, 37 C. Particulars: tags: His tag, R&D Systems 623-AN; label: biotin.
Protocol: (§4) Ang2-bound Tie2 and anti-Ang2 aptamers were partitioned by magnetic separation, and the Ang2-bound Tie2 were subsequently labeled via a fluorescent anti-human antibody. The fraction of Ang2-bound receptor was quantified by flow cytometry (BD Accuri C6 Plus). Raw binding data were corrected for nonspecific background binding and normalized to the fluorescence intensity from the sample with 1 nM Tie2 but without anti-Ang2 aptamer competition. The fraction of bound receptor was plotted as a function of anti-Ang2 aptamer concentration and a non-linear curve-fitting algorithm (dose-response inhibition) was used to extract IC₅₀ values from the data (FIG. 4C).
For series [10], the target named is Angiopoietin-2 (Ang2) (Mus musculus, UniProt O35608 O35608:19-496). The experiment in a line: flow; PBSMCT, 37 C. Particulars: tags: R&D Systems 7186-AN; label: biotin. How it is done: (§3) Various mutations and truncated variants of a representative anti-Ang2 aptamer (AMS0525) were obtained and their binding affinity to Ang2 were measured using magnetic bead partitioning. Biotinylated anti-Ang2 aptamers were conjugated to the 1 μm streptavidin-coated MyOne Streptavidin Cl magnetic beads (Thermo Fisher Scientific, 65002). Binding assays were performed by incubating fixed concentration of aptamer (0.01 nM) and Ang2 protein at concentrations ranging from 10⁻¹² to 10⁻⁸ M in PBSMCT buffer (DPBS, pH 7.2 with 2.5 mM MgCl₂, 1 mM CaCl₂) and 0.01% TWEEN-20) at 37° C. for 90 minutes. Bound target protein was partitioned by magnetic separation and subsequently labeled via fluorescent anti-His-tag antibody. The fraction of anti-Ang2 aptamer bound was quantified by flow cytometry (BD Accuri C6 Plus). Raw binding data were corrected for nonspecific background binding of target protein to empty magnetic beads. The fraction of bound anti-Ang2 aptamer was plotted as a function of protein concentration and a non-linear curve-fitting algorithm (Langmuir one-site binding model) was used to extract equilibrium binding constants (KD values) from the data (FIG. 4A).

The target of series [11] is T3, Angiopoietin-2 (Ang2). The experiment in a line: flow; PBSMCT, 37 C. Particulars: tags: His tag, R&D Systems 623-AN; label: biotin. On the procedure:
as §3

The target in the next series is Angiopoietin-1 (Ang1) (Homo sapiens, UniProt Q15389 Q15389:16-498). The experiment in a line: flow; does not recognize human Ang1. Particulars: tags: R&D Systems 923-AN; label: biotin.
Series [12] concerns the target T1, VEGF-165 (VEGFA isoform 165). The experiment in a line: flow; PBSMCT, 37 C. Particulars: chain copies: 2 (inferred); label: biotin; stem-loop with bulges. How it is done: as §1
The target in series [13] is T2, VEGF-121 (VEGFA isoform 121). The experiment in a line: flow; PBSMCT, 37 C. Particulars: chain copies: 2 (inferred); label: biotin; stem-loop with bulges. On the procedure: as §1
For series [14], the target named is T3, Angiopoietin-2 (Ang2). The experiment in a line: competition; blocks Ang2-Tie2. Particulars: tags: His tag, R&D Systems 623-AN; label: 5'-biotin.
Protocol: as §4

T3 sequence (O15123 19-496, one chain of several): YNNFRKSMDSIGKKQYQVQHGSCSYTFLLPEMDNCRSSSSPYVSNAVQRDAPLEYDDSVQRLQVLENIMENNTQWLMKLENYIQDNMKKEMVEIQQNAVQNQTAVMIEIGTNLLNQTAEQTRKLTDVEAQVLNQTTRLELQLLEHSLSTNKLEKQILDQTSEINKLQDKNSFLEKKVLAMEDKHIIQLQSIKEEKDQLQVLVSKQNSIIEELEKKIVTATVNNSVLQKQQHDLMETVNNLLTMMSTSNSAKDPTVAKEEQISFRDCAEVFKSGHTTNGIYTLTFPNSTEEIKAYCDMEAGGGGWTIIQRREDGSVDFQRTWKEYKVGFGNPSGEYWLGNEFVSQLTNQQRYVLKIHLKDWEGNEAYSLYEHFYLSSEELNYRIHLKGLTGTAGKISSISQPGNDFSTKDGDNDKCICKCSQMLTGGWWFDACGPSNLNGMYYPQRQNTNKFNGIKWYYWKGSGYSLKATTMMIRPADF
Chain of Angiopoietin-1 (Ang1) (Q15389 16-498, one chain of several): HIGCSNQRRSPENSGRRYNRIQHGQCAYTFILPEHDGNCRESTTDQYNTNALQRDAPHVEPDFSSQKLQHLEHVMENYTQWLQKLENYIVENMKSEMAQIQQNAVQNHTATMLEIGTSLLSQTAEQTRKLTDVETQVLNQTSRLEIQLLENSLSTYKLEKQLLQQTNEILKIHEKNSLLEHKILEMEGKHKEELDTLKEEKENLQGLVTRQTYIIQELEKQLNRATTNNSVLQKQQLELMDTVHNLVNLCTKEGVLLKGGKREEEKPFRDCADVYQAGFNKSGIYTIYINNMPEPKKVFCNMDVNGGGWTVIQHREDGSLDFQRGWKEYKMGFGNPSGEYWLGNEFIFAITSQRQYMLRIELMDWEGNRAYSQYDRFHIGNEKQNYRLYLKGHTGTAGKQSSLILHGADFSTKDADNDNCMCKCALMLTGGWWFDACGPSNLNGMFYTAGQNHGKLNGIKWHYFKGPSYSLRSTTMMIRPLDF
Chain of Angiopoietin-2 (Ang2) (Mus musculus, UniProt O35608 O35608:19-496) (O35608 19-496, one chain of several): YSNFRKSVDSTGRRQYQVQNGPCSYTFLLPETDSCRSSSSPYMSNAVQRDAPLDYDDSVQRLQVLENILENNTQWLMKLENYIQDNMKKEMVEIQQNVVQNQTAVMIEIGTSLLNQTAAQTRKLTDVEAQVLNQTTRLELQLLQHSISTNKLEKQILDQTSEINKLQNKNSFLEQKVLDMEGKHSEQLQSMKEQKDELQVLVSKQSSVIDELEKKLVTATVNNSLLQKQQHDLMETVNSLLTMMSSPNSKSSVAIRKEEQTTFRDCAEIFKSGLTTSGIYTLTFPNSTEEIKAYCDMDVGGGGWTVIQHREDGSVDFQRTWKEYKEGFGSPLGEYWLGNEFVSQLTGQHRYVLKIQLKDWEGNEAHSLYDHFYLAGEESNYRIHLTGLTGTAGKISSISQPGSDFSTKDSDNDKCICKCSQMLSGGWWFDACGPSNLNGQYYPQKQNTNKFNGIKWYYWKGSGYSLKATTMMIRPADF

B1: AMS0426 (ssRNA)
RNA: CGUGGAGAUGCAUUCUGUCGAAGAUUGGCUAACACG
modifications: 2'-F all positions
For B1, the Kd in series [1] came out at 0.349 nM; in [2] it was 0.214 nM; in series [5] it was 0.151 nM; in series [6] it was 0.086 nM. For the same molecule, the IC50 in series [3] and in series [4] was ~0.1 nM each time.

B2: AMSB105 (ssRNA)
RNA: CGCAUAGAUAAGCCAACAAACGUACAUUCUCUGUUAGUAUUUUCUGCGCGUGGAGAUGCAUUCUGUCGAAGAUUGGCUAACACG
modifications: 2'-F all positions
In the case of B2, the dissociation constant Kd in the series with Angiopoietin-2 (Ang2) [7] (label: biotin) turned out to be 0.052 nM; in [8] (label: biotin), 0.123 nM.

B3: AMS0526 (ssRNA)
RNA: CGCAUAGAUAAGCCAACAAACGUACAUUCUCUGUUAGUAUUUUCUGCG
modifications: 2'-F all positions
For B3, in the series with Angiopoietin-2 (Ang2) [9], the IC50 was determined as 0.0839 nM. In addition, the figures for the Kd with Angiopoietin-2 (Ang2) [10] and in the series with Angiopoietin-2 (Ang2) [11] were < 0.1 nM and 0.032 nM, respectively. For the same molecule, in the series with Angiopoietin-1 (Ang1), the binding result was “no binding”.

B4: AMSB101 (ssRNA)
RNA: UUUCGCUAGAUGGCUAACACGUAUAUUUGUGGAGAUGCACUAGCGCGCAUAGAUAAGCCAACAAACGUACAUUCUCUGUUAGUAUUUUCUGCG
modifications: 2'-F all positions
With B4, the values for the Kd (with Angiopoietin-2 (Ang2) [7] (label: biotin); in [8] (label: biotin)) were 0.138 nM and 0.125 nM, respectively.

B5: AMS0427 (ssRNA)
RNA: CGCUAGAUGGCUAACACUAUUGUGGAGAUGCACUAGCG
modifications: 2'-F all positions
Take B5: the Kd in series [12] turned out to be 0.091 nM; in series [13], 0.045 nM. The IC50 in series [3] and in series [4] was ~0.1 nM throughout.

B6: AMSB102 (ssRNA)
RNA: CGUGGAGAUGCAUUCUGUCGAAGAUUGGCUAACACGCGCAUAGAUAAGCCAACAAACGUACAUUCUCUGUUAGUAUUUUCUGCG
modifications: 2'-F all positions
On to B6, for which the Kd with Angiopoietin-2 (Ang2) [7] (label: biotin) turned out to be 0.056 nM; in series [8] (label: biotin), 0.092 nM.

B7: AMSB103 (ssRNA)
RNA: CGCUAGAUGGCUAACACUAUUGUGGAGAUGCACUAGCGCGCAUAGAUAAGCCAACAAACGUACAUUCUCUGUUAGUAUUUUCUGCG
modifications: 2'-F all positions
Regarding B7, the equilibrium dissociation constant (Kd) with Angiopoietin-2 (Ang2) [7] (label: 5'-biotin) stood at 0.029 nM; in [8] (label: 5'-biotin), 0.039 nM. In addition, the IC50 with Angiopoietin-2 (Ang2) [14] is < 0.1 nM.

B8: AMSB104 (ssRNA)
RNA: CGCAUAGAUAAGCCAACAAACGUACAUUCUCUGUUAGUAUUUUCUGCGUUUCGCUAGAUGGCUAACACGUAUAUUUGUGGAGAUGCACUAGCG
modifications: 2'-F all positions
As for B8, the Kd with Angiopoietin-2 (Ang2) [7] (label: biotin) turned out to be 0.159 nM; in [8] (label: biotin), 0.087 nM.

B9: AMSB106 (ssRNA)
RNA: CGCAUAGAUAAGCCAACAAACGUACAUUCUCUGUUAGUAUUUUCUGCGCGCUAGAUGGCUAACACUAUUGUGGAGAUGCACUAGCG
modifications: 2'-F all positions
On to B9, for which the results for the Kd (with Angiopoietin-2 (Ang2) [7] (label: biotin); in [8] (label: biotin)) were 0.031 nM and 0.043 nM, respectively.

In general, Kd refers to the free concentration of one partner at which half of the binding sites on the other are occupied at equilibrium, for simple one-to-one binding. In general, IC50 refers to the concentration needed to halve the response being measured. High values mean weaker potency in that assay, low ones greater potency in that assay.
